In ChEMBL document CHEMBL1126199, “(R)-(-)- and (S)-(+)-adenallene: synthesis, absolute configuration, enantioselectivity of antiretroviral effect, and enzymic deamination” (J Med Chem, 1992):
“And” between values parts separate entries of the source, which are not always exact repeats. Equal values may be shown once.

Substrate: Nc1ncnc2c1ncn2C=C=CCO
Test: Vmax by adenosine deaminase

B1: Adenosine deaminase (Bos taurus), P56658 (protein)
chain: MAQTPAFNKPKVELHVHLDGAIKPETILYYGRKRGIALPADTPEELQNIIGMDKPLSLPEFLAKFDYYMPAIAGCREAVKRIAYEFVEMKAKDGVVYVEVRYSPHLLANSKVEPIPWNQAEGDLTPDEVVSLVNQGLQEGERDFGVKVRSILCCMRHQPSWSSEVVELCKKYREQTVVAIDLAGDETIEGSSLFPGHVKAYAEAVKSGVHRTVHAGEVGSANVVKEAVDTLKTERLGHGYHTLEDATLYNRLRQENMHFEVCPWSSYLTGAWKPDTEHPVVRFKNDQVNYSLNTDDPLIFKSTLDTDYQMTKNEMGFTEEEFKRLNINAAKSSFLPEDEKKELLDLLYKAYGMPSPASAEQCL
Vmax: 0.41 µM/min and 0.52 µM/min
